Test results taken from patent US9475855B2, “Human Notch3 based fusion proteins as decoy inhibitors of Notch3 signaling” (THE TRUSTEES OF COLUMBIA UNIVERSITY IN THE CITY OF NEW YORK, priority 2008, dated 2016).

Assays:
CBF1 promoter activity = assay: VEGF-induced Notch signaling, CBF1 promoter (CSL-luciferase) reporter activity in HUVEC; assay type: cell-based, human; conditions: for inhibition of CBF1 promoter activity induced by Ad-VEGF: 40 MOI for each adenovirus; for VEGF-induced CBF1 promoter / CSL-luciferase reporter activity: Ad-VEGF-transduced HUVEC
Protocol: To determine VEGF-induced Notch signaling, HUVEC which were infected with adenovirus were used. HUVEC plated 1-day prior in 6 well plates at 8.0×10^5 were infected with either Ad-LacZ as control or Ad-VEGF at indicated m.o.i. in the presence or absence of Ad-N1ECD/Fc. Two days after infection, infected HUVEC were re-seeded into 24-well plate at 1.5×10^5 cell in triplicate and cultured for 24 hours, and then transfected with 12.5 ng pRL-SV40 (Promega) and 137.5 ng pGA981-6 using Effectene transfection reagent (Qiagen). Cells were harvested either 1 or 2 days post-transfection and luciferase activity was determined by using the Dual-Luciferase® Reporter Assay System (Promega).
One can measure Notch signaling function by measuring transcriptional activity of CBF1 promoter, which is activated by binding of Notch-IC to CBF1. We measured CBF1 promoter activity in HUVEC which was infected with adenovirus encoding VEGF-165 at different MOI (FIG. 6). Induction of CBF1 promoter was clearly detected in Ad-VEGF-infected HUVEC, compared to Ad-LacZ-infected cells in the MOI dependent manner. […] Thus VEGF induced Notch signaling activity.

[1] = tested on: VEGF-induced angiogenesis; assay: mouse Dorsa Air Sac (DAS) assay; assay type: in vivo
Text: These Figures show the role of Notch signaling in VEGF-dependent in vivo angiogenesis. FIGS. 25A-25D show inhibition of VEGF-induced angiogenesis with N1ECDFc in mouse DAS assay. Representative photographs are shown. FIG. 25A show subcutaneous induced angiogenesis with 293/VEGF transfectant versus 293/VEGF also expressing Notch decoy (Notch-based fusion protein) N1ECDFc. […] MDA-MB-231 breast cancer cells produce VEGF (data not shown).

[2] = in vivo assays to model VEGF-induced skin neovascularization

B1: N1ECDFc: Notch-based fusion protein or decoy: Notch1 extracellular domain EGF repeats fused to Fc; expressed from plasmid or adenovirus (Ad-N1ECDFc) (protein)
chain: ARGLRCSQPSGTCLNGGRCEVANGTEACVCSGAFVGQRCQDPSPCLSTPCKNAGTCYVVDHGGIVDYACSCPLGFSGPLCLTPLANACLANPCRNGGTCDLLTLTEYKCRCPPGWSGKSCQQADPCASNPCANGGQCLPFESSYICGCPPGFHGPTCRQDVNECSQNPGLCRHGGTCHNEIGSYRCACRATHTGPHCELPYVPCSPSPCQNGGTCRPTGDTTHECACLPGFAGQNCEENVDDCPGNNCKNGGACVDGVNTYNCRCPPEWTGQYCTEDVDECQLMPNACQNAGTCHNSHGGYNCVCVNGWTGEDCSDNIDDCASAACFQGATCHDRVASFYCECPHGRTGLLCHLNDACISNPCNEGSNCDTNPVNGKAICTCPRGYTGPACSQDVDECALGANPCEHAGKCLNTLGSFECQCLQGYTGPRCEIDVNECISNPCQNDATCLDQIGEFQCICMPGYEGVYCEINTDECASSPCLHNGRCVDKINEFLCQCPKGFSGHLCQYDVDECASTPCKNGAKCLDGPNTYTCVCTEGYTGTHCEVDIDECDPDPCHIGLCKDGVATFTCLCQPGYTGHHCETNINECHSQPCRHGGTCQDRDNYYLCLCLKGTTGPNCEINLDDCASNPCDSGTCLDKIDGYECACEPGYTGSMCNVNIDECAGSPCHNGGTCEDGIAGFTCRCPEGYHDPTCLSEVNECNSNPCIHGACRDGLNGYKCDCAPGWSGTNCDINNNECESNPCVNGGTCKDMTSGYVCTCREGFSGPNCQTNINECASNPCLNQGTCIDDVAGYKCNCPLPYTGATCEVVLAPCATSPCKNSGVCKESEDYESFSCVCPTGWQGQTCEIDINECVKSPCRHGASCQNTNGSYRCLCQAGYTGRNCESDIDDCRPNPCHNGGSCTDGVNAAFCDCLPGFQGAFCEEDINECATNPCQNGANCTDCVDSYTCTCPTGFNGIHCENNTPDCTESSCFNGGTCVDGINSFTCLCPPGFTGSYCQYDVNECDSRPCLHGGTCQDSYGTYKCTCPQGYTGLNCQNLVRWCDSAPCKNGGKCWQTNTQYHCECRSGWTGFNCDVLSVSCEVAAQKRGIDVTLLCQHGGLCVDEEDKHYCHCQAGYTGSYCEDEVDECSPNPCQNGATCTDYLGGFSCKCVAGYHGSNCSEEINECLSQPCQNGGTCIDLTNTYKCSCPRGTQGVHCEINVDDCHPPLDPASRSPKCFNNGTCVDQVGGYTCTCPPGFVGERCEGDVNECLSNPCDPRGTQNCVQRVNDFHCECRAGHTGRRCESVINGCRGKPCRNGGVCAVASNTARGFICRCPARFEGATCENDARTCGSLRCLNGGTCISGPRSPTCLCLGSFTGPECQFPASSPCVGSNPCYNQGTCEPTSESPFYRCLCPAKFNGLLCHILDYSFTDLGPG
modifications: left off: a dimerising Fc or GST
- inhibition of CBF1 promoter activity induced by Ad-VEGF (CBF1 promoter activity; 24 hr after reporter gene transfection): 60%
- inhibition of CBF1 promoter activity induced by Ad-VEGF (CBF1 promoter activity; 48 hr after reporter gene transfection): 90%
- VEGF-induced CBF1 promoter / CSL-luciferase reporter activity (CBF1 promoter activity): clearly decreased
- VEGF-induced CBF1 promoter / CSL-luciferase reporter activity (CBF1 promoter activity; listed as Notch fusion protein): clearly reduced
- in vivo angiogenesis induced by MDA-MB-231 ([1]; adenovirus mediated expression of N1ECDFc, compared to adenovirus expressing LacZ): clearly inhibited
- in vivo angiogenesis induced by 293/VEGF ([1]; coexpression of N1ECDFc, compared to 293/VEGF alone): clearly inhibited
- VEGF-induced neo-vascularization [1, 2]: blocks
- induction of VEGFR-1 expression [1, 2]: blocks
